{"source": "paper PMC9482650", "about": "(Nature Communications, 2022)", "binders": {"B1": {"name": "His6-MBP-SYNJ2BP PDZ (domain or fragment, human, UniProt P57105 13-100, looked up)", "chain": "EINLTRGPSGLGFNIVGGTDQQYVSNDSGIYVSRIKENGAAALDGRLQEGDKILSVNGQDLKNLLHQDAVDLFRNAGYAVSLRVQHRL"}}, "key": {"HTLV1 Tax1 PBM": {"biological_target": "T1, HTLV1 Tax1 PBM (HTLV1, also: biotin attached via linker (not given here))", "T1 chain": "Biotin-SEKHFRETEV-OH", "test": "holdup assay"}, "[1]": {"biological_target": "T2, p-3 phosphorylated RPS6KA1 PBM (human, not fully specified (N-terminus); also: N-terminal linker between biotin and peptide, type not given here)", "T2 chain": "RVRKLP[pS]TTL-OH", "test": "holdup assay; biotinylated PBM peptide saturating streptavidin resin, His6-MBP-PDZ (4 µM) in solution, 15 min at room temperature, no washing, filtration; 50 mM TRIS pH 7.5, 300 mM NaCl, 1 mM TCEP; binding intensity converted to a steady-state Kd given as pKd; PDZ in bacterial lysate (LYSC), single (SAPF) or double (DAPF) affinity purified, which one for a given pair is not given"}, "RPS6KA1 PBM": {"biological_target": "T3, RPS6KA1 PBM (human, also: biotin via linker: TTDS, Ahx or Ado-Ado)", "T3 chain": "Biotin-RVRKLPSTTL-OH", "test": "holdup assay; biotinylated PBM peptide saturating streptavidin resin, His6-MBP-PDZ (4 µM) in solution, 15 min at room temperature, no washing, filtration; 50 mM TRIS pH 7.5, 300 mM NaCl, 1 mM TCEP; binding intensity converted to a steady-state Kd given as pKd; PDZ in bacterial lysate (LYSC), single (SAPF) or double (DAPF) affinity purified, which one for a given pair is not given"}}, "note": "Square brackets hold non-standard residues; d marks the D form. Ends that are not written are not given here. * marks the point of attachment. Biotin = O=C1N[C@H]2[C@H](CS[C@H]2CCCCC(=O)*)N1; pS = N[C@@H](COP(=O)(O)O)C(=O)O"}
{"binder": "B1", "values": [{"measurement": "pKd", "setting": "HTLV1 Tax1 PBM", "result": "6.04 pKd (-log10 of Kd in M)"}, {"measurement": "pKd", "setting": "[1]", "result": "4.48 pKd (-log10 of Kd in M)"}, {"measurement": "pKd", "setting": "RPS6KA1 PBM", "result": "3.82 pKd (-log10 of Kd in M)"}]}
